According to patent EP1192182B1, “PITUITARY ADENYLATE CYCLASE ACTIVATING PEPTIDE (PACAP) RECEPTOR 3 (R3) AGONISTS AND THEIR PHARMACOLOGICAL METHODS OF USE” (priority 1999, dated 2001):
No end group written: not given here.

T1: PACAP-R3 (human, UniProt P41587 24-438)
T1 sequence (looked up): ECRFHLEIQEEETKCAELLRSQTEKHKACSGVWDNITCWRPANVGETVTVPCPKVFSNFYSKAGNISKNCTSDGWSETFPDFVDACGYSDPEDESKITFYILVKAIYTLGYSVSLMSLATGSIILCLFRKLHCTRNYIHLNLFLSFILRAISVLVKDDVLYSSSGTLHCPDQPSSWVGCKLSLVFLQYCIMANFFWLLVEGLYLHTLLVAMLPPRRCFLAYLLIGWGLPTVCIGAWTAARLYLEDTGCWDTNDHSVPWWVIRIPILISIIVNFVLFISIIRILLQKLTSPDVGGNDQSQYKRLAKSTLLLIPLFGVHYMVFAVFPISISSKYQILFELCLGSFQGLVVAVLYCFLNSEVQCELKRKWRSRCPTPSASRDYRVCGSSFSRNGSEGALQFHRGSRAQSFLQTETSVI


Target: T1, PACAP-R3
Test: cell-based or functional assay

**Q.** Which “R3 EC50” value does the source give for HSDAVFTDNYTRLRKQMAMKKYLNSIKNKR [R3P105] here?
**A.** 0.3 nM

**Q.** How did the “R3 EC50” value turn out when HSDAVFTDNYTRLRKQMASKKYLNSIKNKR [R3P110] was run?
**A.** 0.5 nM

**Q.** What about the “R3 Selectivity” value of the same binder?
**A.** 200 ratio

**Q.** Which “R3 EC50” value does the source give for HSDAVFTDNYTRLRKQMAAKKYLNSIRNKR [R3P127] here?
**A.** 0.5 nM

**Q.** And the “R3 Selectivity” value?
**A.** 600 ratio

**Q.** With HSDAVFTDNYTRLRKQVAAKKYLQSILNKR [R3P92] as the binder, how does the “R3 EC50” value read?
**A.** 0.02 nM

**Q.** And the “R3 Selectivity” value?
**A.** 100 ratio

**Q.** How did the “R3 EC50” value turn out when HSDAVFTDNYTRLRKQMAWKKYLNSIKNKR [R3P113] was run?
**A.** 0.3 nM

**Q.** And the “R3 Selectivity” value?
**A.** 10 ratio

**Q.** Which results are given for HSDAVFTDNYTRLRKQMAQKKYLNSIKNKR [R3P108]?
**A.** R3 EC50: 300 nM; R3 Selectivity: 3 ratio

**Q.** With HSDAVFTDNYTRLRKQMAAKKYLNSIGNKR [R3P120] as the binder, how does the “R3 EC50” value read?
**A.** 0.2 nM

**Q.** And the “R3 Selectivity” value?
**A.** 50 ratio

**Q.** Which “R3 EC50” value does the source give for HSDAVFTDNYTRLRKQMAAKKYLNSINNKR [R3P124] here?
**A.** 0.2 nM

**Q.** And the “R3 Selectivity” value?
**A.** 15 ratio

**Q.** How did the “R3 EC50” value turn out when HSDAVFTDNYTRLRKQMAAKKYLNSIQNKR [R3P126] was run?
**A.** 1 nM

**Q.** And the “R3 Selectivity” value?
**A.** 200 ratio

**Q.** For HSDAVFTDNYTRLRKQVAAKKYLQSILKKR [R3P84], which “R3 Selectivity” value is on record?
**A.** 40 ratio

**Q.** HSDAVFTDNYTRLRKQMARKKYLNSIKNKR [R3P109] was tested. Which “R3 EC50” value did it give?
**A.** 10 nM

**Q.** And the “R3 Selectivity” value?
**A.** 100 ratio

**Q.** HSDAVFTDNYTRLRKQMAAKKYLNSICNKR [R3P116] was tested. Which “R3 EC50” value did it give?
**A.** 1 nM

**Q.** What about the “R3 Selectivity” value of the same binder?
**A.** 20 ratio

**Q.** How did the “R3 Selectivity” value turn out when HSDAVFTDNYTRLRKQVAVKKYLQSILKKR [R3P88] was run?
**A.** 12 ratio

**Q.** How did the “R3 EC50” value turn out when HSDAVFTDNYTRLRKQMAAKKYLNSIPNKR [R3P125] was run?
**A.** 2 nM

**Q.** And the “R3 Selectivity” value?
**A.** 30 ratio

**Q.** What does the source list for HSDAVFTDNYTRLRKQMAKKKYLNSIKNKR [R3P103]?
**A.** R3 EC50: 0.05 nM; R3 Selectivity: 8 ratio

**Q.** Which “R3 Selectivity” value does the source give for HSDAVFTDNYTRLRKQVAAKKYLQSIKKKR [R3P77] here?
**A.** 500 ratio

**Q.** Which results are given for HSDAVFTDNYTRLRKQMAAKKYLNSIVNKR [R3P130]?
**A.** R3 EC50: 1 nM; R3 Selectivity: 40 ratio

**Q.** For HSDAVFTDNYTRLRKQMAAKKYLNSIENKR [R3P118], which “R3 Selectivity” value is on record?
**A.** 30 ratio

**Q.** What does the source list for HSDAVFTDNYTRLRKQMAAKKYLNSIHNKR [R3P121]?
**A.** R3 EC50: 1 nM; R3 Selectivity: 50 ratio

**Q.** For HSDAVFTDNYTRLRKQMAAKKYLNSITNKR [R3P129], which “R3 Selectivity” value is on record?
**A.** 50 ratio

**Q.** With HSDAVFTENYTKLRKQLAAKKYLNDLLNGGT [R3P10] as the binder, how does the “R3 Selectivity” value read?
**A.** 0.3 ratio

**Q.** How did the “R3 Selectivity” value turn out when HSDAVFTDNYTKLRKQLAAKKYLNDILNGGT [R3P11] was run?
**A.** 3 ratio

**Q.** HSDAVFTDQYTRLRKQLAAHKYLNTIKNKRY [R3P75] was tested. Which “R3 Selectivity” value did it give?
**A.** > 500 ratio

**Q.** How did the “R3 EC50” value turn out when HSDAVFTDNYTRLRKQMAAKKYLNSIFNKR [R3P119] was run?
**A.** 0.5 nM

**Q.** And the “R3 Selectivity” value?
**A.** 30 ratio

**Q.** HSDAVFTDNYTRLRKQMAAKKYLNSIINKR [R3P122] was tested. Which “R3 EC50” value did it give?
**A.** 0.2 nM

**Q.** How did the “R3 Selectivity” value turn out when HSDAVFTDNYTRLRKQLAAKKYLNDIKK-NH2 [R3P13] was run?
**A.** 33 ratio

**Q.** Which results are given for HSDAVFTDNYTRLRKQMAGKKYLNSIKNKR [R3P100]?
**A.** R3 EC50: 0.3 nM; R3 Selectivity: 30 ratio

**Q.** Which “R3 EC50” value does the source give for HSDAVFTDNYTRLRKQMAAKKYLNSIANKR [R3P115] here?
**A.** 6 nM

**Q.** What about the “R3 Selectivity” value of the same binder?
**A.** 50 ratio

**Q.** HSDAVFTDNYTRLRKQMATKKYLNSIKNKR [R3P111] was tested. Which “R3 EC50” value did it give?
**A.** 3 nM

**Q.** With HSDAVFTDNYTRLRKQVAAKKYLQSIKNK [R3P86] as the binder, how does the “R3 Selectivity” value read?
**A.** 110 ratio

**Q.** HSDAVFTDNYTRLRKQMAIKKYLNSIKNKR [R3P102] was tested. Which “R3 EC50” value did it give?
**A.** 60 nM

**Q.** What about the “R3 Selectivity” value of the same binder?
**A.** 5 ratio

**Q.** HSDAVFTDNYTRLRKQMACKKYLNSIKNKR [R3P94] was tested. Which “R3 EC50” value did it give?
**A.** 0.09 nM

**Q.** What about the “R3 Selectivity” value of the same binder?
**A.** 100 ratio

**Q.** HSDAVFTDNYTRLRKQVAAKKYLNSIKKKR [R3P78] was tested. Which “R3 Selectivity” value did it give?
**A.** 230 ratio

**Q.** How did the “R3 Selectivity” value turn out when HSDAVFTDNYTRLRKQVAVKKYLQSIKKK [R3P81] was run?
**A.** 100 ratio

**Q.** How did the “R3 EC50” value turn out when HSDAVFTDNYTRLRKQMALKKYLNSIKNKR [R3P104] was run?
**A.** 0.2 nM

**Q.** And the “R3 Selectivity” value?
**A.** 500 ratio

**Q.** With HSDAVFTDNYTRLRKQMAFKKYLNSIKNKR [R3P99] as the binder, how does the “R3 EC50” value read?
**A.** 1 nM

**Q.** And the “R3 Selectivity” value?
**A.** 40 ratio

**Q.** With HSDAVFTDNYTRLRKQMAHKKYLNSIKNKR [R3P101] as the binder, how does the “R3 EC50” value read?
**A.** 1 nM

**Q.** And the “R3 Selectivity” value?
**A.** 400 ratio

**Q.** With HSDAVFTDNYTRLRKQMAYKKYLNSIKNKR [R3P114] as the binder, how does the “R3 EC50” value read?
**A.** 2 nM

**Q.** And the “R3 Selectivity” value?
**A.** 10 ratio

**Q.** With HSDAVFTDNYTRLRKQVAAKKYLQSILNK [R3P93] as the binder, how does the “R3 EC50” value read?
**A.** 0.14 nM

**Q.** And the “R3 Selectivity” value?
**A.** 40 ratio

**Q.** Which “R3 EC50” value does the source give for HSDAVFTDNYTRLRKQMAAKKYLNSISNKR [R3P128] here?
**A.** 0.3 nM

**Q.** And the “R3 Selectivity” value?
**A.** 200 ratio

**Q.** HSDAVFTDNYTRLRKQVAAKKYLQSILKK [R3P85] was tested. Which “R3 Selectivity” value did it give?
**A.** 30 ratio

**Q.** With HSDAVFTDNYTRLRKQVAVKKYLQSILKK [R3P89] as the binder, how does the “R3 Selectivity” value read?
**A.** 15 ratio

**Q.** For HSDAVFTDNYTRLRKQMAVKKYLNSIKKGGT [R3P9], which “R3 Selectivity” value is on record?
**A.** 20 ratio

**Q.** How did the “R3 Selectivity” value turn out when HSDAVFTDNYTRLRKQLAAKKYLNDIKKGGT [R3P12] was run?
**A.** > 200 ratio

**Q.** Which “R3 EC50” value does the source give for HSDAVFTDNYTRLRKQMAPKKYLNSIKNKR [R3P107] here?
**A.** 200 nM

**Q.** And the “R3 Selectivity” value?
**A.** 5 ratio

**Q.** HSDAVFTDNYTRLRKQVAVKKYLQSIKNKRY [R3P82] was tested. Which “R3 Selectivity” value did it give?
**A.** 23 ratio

**Q.** With HSDAVFTDNYTRLRKQVAAKKYLQSILKKRY [R3P83] as the binder, how does the “R3 Selectivity” value read?
**A.** 60 ratio

**Q.** With HSDAVFTDNYTRLRKQVAVKKYLQSILKKRY [R3P87] as the binder, how does the “R3 Selectivity” value read?
**A.** 3 ratio
